Test results from patent publication US20060110789.

Legend:
[1] = target: T1, (5)M3+TE (module 3 of DEBS with the N-terminal linker of module 5, fused to thioesterase), Q03132
T1 chain: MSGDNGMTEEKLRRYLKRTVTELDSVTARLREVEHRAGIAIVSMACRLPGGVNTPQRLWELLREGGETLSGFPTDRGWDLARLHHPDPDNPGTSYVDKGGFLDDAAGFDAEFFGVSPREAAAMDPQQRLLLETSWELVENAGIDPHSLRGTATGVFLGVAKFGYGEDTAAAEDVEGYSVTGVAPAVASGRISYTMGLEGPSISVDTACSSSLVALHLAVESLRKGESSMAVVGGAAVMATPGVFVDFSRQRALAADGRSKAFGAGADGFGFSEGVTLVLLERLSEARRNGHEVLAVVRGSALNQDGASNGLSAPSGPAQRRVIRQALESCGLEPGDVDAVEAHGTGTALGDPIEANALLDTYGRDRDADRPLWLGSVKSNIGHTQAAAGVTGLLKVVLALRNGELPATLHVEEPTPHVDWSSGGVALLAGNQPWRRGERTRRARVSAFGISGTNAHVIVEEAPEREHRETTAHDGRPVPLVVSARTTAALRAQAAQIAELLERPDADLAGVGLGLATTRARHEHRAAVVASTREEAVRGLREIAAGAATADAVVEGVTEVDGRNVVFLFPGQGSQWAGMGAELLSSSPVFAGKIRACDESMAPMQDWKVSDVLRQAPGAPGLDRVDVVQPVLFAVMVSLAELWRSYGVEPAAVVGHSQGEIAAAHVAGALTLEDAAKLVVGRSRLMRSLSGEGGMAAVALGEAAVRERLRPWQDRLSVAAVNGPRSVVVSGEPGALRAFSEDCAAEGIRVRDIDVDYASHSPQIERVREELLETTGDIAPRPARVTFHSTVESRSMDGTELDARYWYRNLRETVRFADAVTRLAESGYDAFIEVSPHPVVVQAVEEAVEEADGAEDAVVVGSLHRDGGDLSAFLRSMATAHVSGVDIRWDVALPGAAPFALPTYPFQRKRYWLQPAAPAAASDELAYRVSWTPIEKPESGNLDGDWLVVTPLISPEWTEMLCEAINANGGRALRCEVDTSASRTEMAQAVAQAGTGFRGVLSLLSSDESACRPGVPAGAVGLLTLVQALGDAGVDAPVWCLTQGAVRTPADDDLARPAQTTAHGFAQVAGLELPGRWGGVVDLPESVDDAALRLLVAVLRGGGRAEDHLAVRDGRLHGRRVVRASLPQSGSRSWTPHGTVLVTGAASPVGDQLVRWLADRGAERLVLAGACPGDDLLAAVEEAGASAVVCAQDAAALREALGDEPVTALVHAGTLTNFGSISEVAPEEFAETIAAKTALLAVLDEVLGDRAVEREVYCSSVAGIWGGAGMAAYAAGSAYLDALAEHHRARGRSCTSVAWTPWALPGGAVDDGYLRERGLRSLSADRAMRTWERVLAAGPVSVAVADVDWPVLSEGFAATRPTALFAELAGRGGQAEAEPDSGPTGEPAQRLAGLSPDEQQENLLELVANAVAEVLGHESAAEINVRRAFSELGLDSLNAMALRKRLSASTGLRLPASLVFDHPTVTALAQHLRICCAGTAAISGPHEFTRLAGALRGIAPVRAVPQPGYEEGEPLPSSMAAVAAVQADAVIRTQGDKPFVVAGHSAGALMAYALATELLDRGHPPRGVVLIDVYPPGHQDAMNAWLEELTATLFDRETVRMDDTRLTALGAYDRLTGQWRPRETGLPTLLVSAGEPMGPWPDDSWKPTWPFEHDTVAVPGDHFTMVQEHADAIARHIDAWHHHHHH

[2] = target: T2, M3+TE (module 3 of DEBS with its own N-terminal linker, fused to thioesterase), Q03132
T2 chain: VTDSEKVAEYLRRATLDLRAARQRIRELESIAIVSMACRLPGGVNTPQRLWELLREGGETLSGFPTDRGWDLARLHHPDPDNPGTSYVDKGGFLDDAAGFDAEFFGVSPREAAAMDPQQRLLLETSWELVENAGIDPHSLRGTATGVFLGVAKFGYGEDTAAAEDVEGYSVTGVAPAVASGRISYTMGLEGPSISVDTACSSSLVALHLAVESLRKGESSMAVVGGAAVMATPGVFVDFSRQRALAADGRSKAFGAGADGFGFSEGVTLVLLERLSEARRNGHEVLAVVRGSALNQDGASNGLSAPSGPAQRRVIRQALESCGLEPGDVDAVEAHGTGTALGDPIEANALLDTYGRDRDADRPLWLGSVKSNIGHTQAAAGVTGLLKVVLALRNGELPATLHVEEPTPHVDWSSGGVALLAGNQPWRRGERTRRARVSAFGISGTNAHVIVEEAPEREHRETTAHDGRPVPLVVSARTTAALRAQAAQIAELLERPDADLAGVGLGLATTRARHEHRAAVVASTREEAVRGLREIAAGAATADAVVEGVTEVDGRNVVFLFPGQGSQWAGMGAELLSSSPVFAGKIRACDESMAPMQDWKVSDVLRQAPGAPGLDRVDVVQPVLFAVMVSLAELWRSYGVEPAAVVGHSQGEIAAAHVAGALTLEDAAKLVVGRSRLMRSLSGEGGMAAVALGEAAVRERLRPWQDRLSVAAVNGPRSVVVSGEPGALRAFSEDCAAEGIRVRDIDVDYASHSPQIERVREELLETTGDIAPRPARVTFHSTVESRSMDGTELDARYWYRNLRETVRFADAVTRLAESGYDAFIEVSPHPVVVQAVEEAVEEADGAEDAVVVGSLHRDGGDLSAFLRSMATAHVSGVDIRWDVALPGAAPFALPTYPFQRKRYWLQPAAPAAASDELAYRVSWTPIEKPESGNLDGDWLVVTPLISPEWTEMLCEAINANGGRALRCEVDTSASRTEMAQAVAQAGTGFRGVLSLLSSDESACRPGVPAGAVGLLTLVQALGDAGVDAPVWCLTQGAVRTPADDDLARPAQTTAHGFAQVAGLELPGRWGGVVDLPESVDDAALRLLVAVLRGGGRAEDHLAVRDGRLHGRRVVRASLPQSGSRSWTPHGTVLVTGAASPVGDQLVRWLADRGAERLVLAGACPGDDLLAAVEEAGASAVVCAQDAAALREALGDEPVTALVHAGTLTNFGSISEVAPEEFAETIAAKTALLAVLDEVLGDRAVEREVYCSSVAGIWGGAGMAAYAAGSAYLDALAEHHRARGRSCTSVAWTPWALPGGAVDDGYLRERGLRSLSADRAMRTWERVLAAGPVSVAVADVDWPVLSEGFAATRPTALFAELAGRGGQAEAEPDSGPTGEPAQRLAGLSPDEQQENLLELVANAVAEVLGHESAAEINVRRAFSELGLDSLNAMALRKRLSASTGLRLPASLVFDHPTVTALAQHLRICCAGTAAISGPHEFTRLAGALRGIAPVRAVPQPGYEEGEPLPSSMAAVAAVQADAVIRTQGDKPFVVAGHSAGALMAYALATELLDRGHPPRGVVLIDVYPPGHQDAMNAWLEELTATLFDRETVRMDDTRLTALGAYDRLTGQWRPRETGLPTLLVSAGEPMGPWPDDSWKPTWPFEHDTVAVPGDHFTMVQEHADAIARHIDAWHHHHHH

B1: M2 (module 2 of DEBS with its natural C-terminal linker) (protein)
chain: MSGDNGMTEEKLRRYLKRTVTELDSVTARLREVEHRAGIAIVGMACRLPGEVDSPERLWELITSGRDSAAEVPDDRGWVPDELMASDAAGTRAHGNFMAGAGDFDAAFFGISPREALAMDPQQRQALETTWEALESAGIPPETLRGSDTGVFVGMSHQGYATGRPRPEDGVDGYLLTGNTASVASGRIAYVLGLEGPALTVDTACSSSLVALHTACGSLRDGDCGLAVAGGVSVMAGPEVFTEFSRQGALSPDGRCKPFSDEADGFGLGEGSAFVVLQRLSDARREGRRVLGVVAGSAVNQDGASNGLSAPSGVAQQRVIRRAWARAGITGADVAVVEAHGTGTRLGDPVEASALLATYGKSRGSSGPVLLGSVKSNIGHAQAAAGVAGVIKVLLGLERGVVPPMLCRGERSGLIDWSSGEIELADGVREWSPAADGVRRAGVSAFGVSGTNAHVIIAEPPEPEPVPQPRRMLPATGVVPVVLSARTGAALRAQAGRLADHLAAHPGIAPADVSWTMARARQHFEERAAVLAADTAEAVHRLRAVADGAVVPGVVTGSASDGGSVFVFPGQGAQWEGMARELLPVPVFAESIAECDAVLSEVAGFSVSEVLEPRPDAPSLERVDVVQPVLFAVMVSLARLWRACGAVPSAVIGHSQGEIAAAVVAGALSLEDGMRVVARRSRAVRAVAGRGSMLSVRGGRSDVEKLLADDSWTGRLEVAAVNGPDAVVVAGDAQAAREFLEYCEGVGIRARAIPVDYASHTAHVEPVRDELVQALAGITPRRAEVPFFSTLTGDFLDGTELDAGYWYRNLRHPVEFHSAVQALTDQGYATFIEVSPHPVLASSVQETLDDAESDAAVLGTLERDAGDADRFLTALADAHTRGVAVDWEAVLGRAGLVDLPGYPFQGKRFWLLPDRTTPRDELDGWFYRVDWTEVPRSEPAALRGRWLVVVPEGHEEDGWTVEVRSALAEAGAEPEVTRGVGGLVGDCAGVVSLLALEGDGAVQTLVLVRELDAEGIDAPLWTVTFGAVDAGSPVARPDQAKLWGLGQVASLERGPRWTGLVDLPHMPDPELRGRLTAVLAGSEDQVAVRADAVRARRLSPAHVTATSEYAVPGGTILVTGGTAGLGAEVARWLAGRGAEHLALVSRRGPDTEGVGDLTAELTRLGARVSVHACDVSSREPVRELVHGLIEQGDVVRGVVHAAGLPQQVAINDMDEAAFDEVVAAKAGGAVHLDELCSDAELFLLFSSGAGVWGSARQGAYAAGNAFLDAFARHRRGRGLPATSVAWGLWAAGGMTGDEEAVSFLRERGVRAMPVPRALAALDRVLASGETAVVVTDVDWPAFAESYTAARPRPLLDRIVTTAPSERAGEPETESLRDRLAGLPRAERTAELVRLVRTSTATVLGHDDPKAVRATTPFKELGFDSLAAVRLRNLLNAATGLRLPSTLVFDHPNASAVAGFLDGTEVRGEAPSALAGLDALEGALPEVPATEREELVQRLERMLAALRPVAQAADASGTGANPSGDDLGEAGVDELLEALGRELDGD
- highest rate constant of tetraketide lactone 2 formation (mismatched linkers) [1]: in the range of 0.02-0.03 min^-1
- maximum rate constant (kcat) of tetraketide lactone 2 formation [2]: 0.0045 ± 0.00017 s⁻¹
